According to article PMC2120984:
Read-outs that look alike come from different tables or passages of the source.

What was measured:
[1] = target: alpha v integrins of OV10 cells (human (endogenous in OV10)); assay: binding of protein-coated beads to adherent cells
[2] = target: alpha v integrins of OV10 cells (human (endogenous in OV10)); assay: binding of protein-coated beads to adherent cells; remark: listed apart in the source

“Vitronectin (from UniProt P04004) (ligand)” showed an attachment index (beads bound per 100 cells) (beads bound per 100 cells) [1] of 373 and an attachment index (beads bound per 100 cells) (beads bound per 100 cells) [2] of 181.
